The values that follow come from US20110003343, “CONJUGATES OF BIOMOLECULES TO NANOPARTICLES” (LIFE TECHNOLOGIES CORPORATION, published 2011).

Data set [1] deals with Phi-29 (exo-) DNA polymerase exo- (substitutions not given) (Bacteriophage phi29) (UniProt P03680). To be noted: tpol, unit not shown; unit assumed.
Data set [2] deals with Phi-29 (exo-) T373R exo- (substitutions not given), T373R (Bacteriophage phi29) (UniProt P03680). The settings on record: tpol, unit not shown; unit assumed.
In data set [3] the target is Phi-29 (exo-) T373Y exo- (substitutions not given), T373Y (Bacteriophage phi29) (UniProt P03680). The settings on record: tpol, unit not shown; unit assumed.
Data set [4] concerns the target T1, His-tagged F-linker Phi29 DNA polymerase D169A (exo-) (Bacteriophage phi29, UniProt P03680 SEQ:27-596).
T1 chain: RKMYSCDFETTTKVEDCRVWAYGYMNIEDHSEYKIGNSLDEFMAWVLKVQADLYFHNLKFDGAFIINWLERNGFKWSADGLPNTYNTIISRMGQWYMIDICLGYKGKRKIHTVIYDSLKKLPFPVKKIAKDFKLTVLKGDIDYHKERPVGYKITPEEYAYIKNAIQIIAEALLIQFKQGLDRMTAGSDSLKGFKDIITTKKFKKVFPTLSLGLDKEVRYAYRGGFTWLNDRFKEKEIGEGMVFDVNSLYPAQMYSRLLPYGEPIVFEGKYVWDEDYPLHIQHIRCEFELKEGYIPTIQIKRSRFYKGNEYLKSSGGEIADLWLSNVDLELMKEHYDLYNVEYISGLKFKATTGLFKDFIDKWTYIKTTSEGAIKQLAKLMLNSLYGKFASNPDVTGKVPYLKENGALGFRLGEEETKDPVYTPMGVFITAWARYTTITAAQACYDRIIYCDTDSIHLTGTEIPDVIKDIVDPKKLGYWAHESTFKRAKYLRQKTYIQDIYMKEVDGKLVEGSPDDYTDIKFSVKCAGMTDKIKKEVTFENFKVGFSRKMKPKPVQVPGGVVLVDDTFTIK
Put plainly: FRET binding; Mg/Mn buffer; untreated, GST- or UDG/UGI-treated dots. The settings on record: tags: His tag and F-linker, linked to quantum dot; label: 3' Alexa Fluor 647; hairpin with 5' overhang.

Data set [5] has as its target T2, HP1 Phi29 DNA polymerase D12A/D66A (Bacteriophage phi29, UniProt P03680 SEQ:26-600).
T2 chain: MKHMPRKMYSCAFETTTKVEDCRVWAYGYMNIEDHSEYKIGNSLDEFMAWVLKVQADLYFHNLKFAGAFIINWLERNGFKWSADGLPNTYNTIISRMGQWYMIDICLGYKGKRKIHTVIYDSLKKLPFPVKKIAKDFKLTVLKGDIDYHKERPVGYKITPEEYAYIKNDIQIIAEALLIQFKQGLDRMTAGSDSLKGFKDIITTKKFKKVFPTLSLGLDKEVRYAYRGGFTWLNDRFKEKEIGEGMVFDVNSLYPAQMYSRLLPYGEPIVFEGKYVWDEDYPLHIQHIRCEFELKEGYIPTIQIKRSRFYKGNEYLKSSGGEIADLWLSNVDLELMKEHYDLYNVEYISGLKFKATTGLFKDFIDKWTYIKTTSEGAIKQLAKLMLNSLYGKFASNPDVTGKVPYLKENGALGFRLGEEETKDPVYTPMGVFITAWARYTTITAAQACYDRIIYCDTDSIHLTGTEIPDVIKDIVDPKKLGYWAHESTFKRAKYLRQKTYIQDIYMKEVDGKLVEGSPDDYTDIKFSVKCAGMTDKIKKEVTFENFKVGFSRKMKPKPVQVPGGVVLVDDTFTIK
Kind of data set: FRET binding; 50 mM Tris pH 7.5, 50 mM NaCl, 10 mM MgCl2, 0.5 mM MnCl2; oligo 199 or 192 used. To be noted: tags: N-terminal His tag, linked to quantum dot; label: 3' Alexa Fluor 647; hairpin with 5' overhang.

Data set [6] concerns the target T3, PKA-tagged Phi29 DNA polymerase (Bacteriophage phi29, UniProt P03680 SEQ:30-599).
T3 chain: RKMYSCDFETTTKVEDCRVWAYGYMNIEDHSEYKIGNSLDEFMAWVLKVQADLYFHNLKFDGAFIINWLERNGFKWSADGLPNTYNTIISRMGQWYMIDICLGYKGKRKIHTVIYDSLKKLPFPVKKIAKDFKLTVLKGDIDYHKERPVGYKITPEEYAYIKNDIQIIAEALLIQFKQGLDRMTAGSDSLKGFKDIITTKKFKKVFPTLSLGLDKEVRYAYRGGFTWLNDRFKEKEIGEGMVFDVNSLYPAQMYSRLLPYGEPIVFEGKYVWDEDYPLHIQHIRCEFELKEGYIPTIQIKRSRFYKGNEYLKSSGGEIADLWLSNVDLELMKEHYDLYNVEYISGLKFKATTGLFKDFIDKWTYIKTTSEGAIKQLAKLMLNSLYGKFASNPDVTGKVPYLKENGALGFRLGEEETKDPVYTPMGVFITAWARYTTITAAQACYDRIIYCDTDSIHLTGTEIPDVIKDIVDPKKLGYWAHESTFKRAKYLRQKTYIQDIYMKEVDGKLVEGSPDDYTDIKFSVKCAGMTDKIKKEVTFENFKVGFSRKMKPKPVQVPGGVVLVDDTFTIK
Put plainly: FRET binding. The settings on record: label: 3' Alexa Fluor 647-dC; hairpin with 5' overhang. The method, then: 50 μl of the primer/template was transferred from each well of row two into 50 μl of the sample in each well of row one.
The microtiter plate was placed on the plate reader which was set to measure fluorescence at 605 nm and 670 nm with excitation at 450 nm. The results are depicted in FIG. 11. […] The ratio of 605 nm/670 nm signals is depicted in FIG. 11C.

The target of data set [7] is T1, His-tagged F-linker Phi29 DNA …. Put plainly: FRET binding; BSA-treated dots; dATP present. The settings on record: tags: His tag and F-linker, linked to quantum dot; label: 3' Alexa Fluor 647; hairpin with 5' overhang. The text has this:
The binding reactions contained: 1× extension buffer, A1 nanoparticles-phi29 conjugates (or phi29 non-conjugated), oligonucleotide 229, and dATP. The binding reactions were serially diluted. […] The ratio of 605 nm/670 nm signals is depicted in FIG. 15C.

Data set [8] addresses T4, Phi29 DNA polymerase (HRP-treated quantum dot conjugate) (Bacteriophage phi29, UniProt P03680 P03680:1-575).
T4 chain: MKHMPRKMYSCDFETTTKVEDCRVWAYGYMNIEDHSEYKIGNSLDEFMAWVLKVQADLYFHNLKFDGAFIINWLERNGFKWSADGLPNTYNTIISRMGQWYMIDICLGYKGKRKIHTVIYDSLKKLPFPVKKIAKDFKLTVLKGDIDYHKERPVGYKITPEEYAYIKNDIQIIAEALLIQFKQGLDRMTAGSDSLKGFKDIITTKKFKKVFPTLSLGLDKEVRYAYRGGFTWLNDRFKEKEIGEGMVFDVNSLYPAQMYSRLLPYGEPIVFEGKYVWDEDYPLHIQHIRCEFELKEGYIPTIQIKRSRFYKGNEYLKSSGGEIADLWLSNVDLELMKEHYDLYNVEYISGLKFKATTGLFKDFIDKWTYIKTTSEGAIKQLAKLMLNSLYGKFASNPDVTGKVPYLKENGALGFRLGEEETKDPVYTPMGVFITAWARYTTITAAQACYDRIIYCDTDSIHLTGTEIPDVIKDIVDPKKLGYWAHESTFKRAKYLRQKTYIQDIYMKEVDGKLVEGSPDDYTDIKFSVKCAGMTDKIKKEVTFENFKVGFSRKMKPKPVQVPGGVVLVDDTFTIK
Put plainly: FRET binding; 250 nM oligo. The settings on record: tags: His tag, label: 3' Alexa Fluor 647, hairpin with 5' overhang. The method, then:
and 40 nM of the nanoparticle-polymerase conjugates in 50 mM Tris, 50 mM NaCl and 10 mM MgCl₂. The reaction was excited at 450 nm and emission (e.g., FRET) was detected as a ratio of intensities at 605/670 (dot emission/ALEXA FLUOR 647 emission).

In the case of “CGTTAACCGCCCGCTCCTTTGCAAC / GTTGCAAAGGAGCGGGCG [stopped-flow template/primer]”, the activity in data set [1] came to 11 ms; in data set [2], 15 ms; in data set [3], 14 ms.

Consider TTATCTTTGTGGGTGACAGGTTTTTCCTGTCACCC (structured_DNA) [oligo 199], for which the binding result in data set [4] and in data set [5] was “binds” each time.

In the case of TTATCTTTGTGGGTGACAGGTTTTTCCTGTCACCC (structured_DNA) [JX338], in data set [6], the binding result is “binds”.

Consider TTTTTGCGGGTGACAGGTTTTTCCTGTCACCC (structured_DNA) [oligo 229], for which the binding result in data set [7] is recorded as “binds”.

On to TTATCTTTGTGGGTGACAGGTTTTTCCTGTCACC (structured_DNA) [AF647 hairpin (Example 15)], for which the binding result in data set [8] was “binds”.
